In patent WO2013041865A1:

How the values were obtained:
[1] = target: … HLA-A*01 complex (MAGE-3 peptide, soluble biotinylated pHLA); assay: SPR (BIAcore) method of Example 3
[2] = target: … HLA-A*01 complex (MAGE-3 peptide, soluble biotinylated pHLA); assay: SPR (BIAcore 3000); biotinylated pHLA on streptavidin chip, soluble TCR injected, 25 C

B1: reference MAGE-3 TCR (disulfide linked soluble heterodimeric form) (TCR, V domains shown)
V domain 1: KQEVTQIPAALSVPEGENLVLNCSFTDSAIYNLQWFRQDPGKGLTSLLLIQSSQREQTSGRLNASLDKSSGRSTLYIAASQPGDSATYLCAVRPGGAGSYQLTFGKGTKLSVIP
V domain 2: KAGVTQTPRYLIKTRGQQVTLSCSPISGHRSVSWYQQTPGQGLQFLFEYFSETQRNKGNFPGRFSGRQFSNSRSEMNVSTLELGDSALYLCASSPNMADEQYFGPGTRLTVTE
koff [1]: 0.2 s⁻¹
T½ (binding half-life) [2]: 3 s
